Reference: US20260159551A1 (SRI INTERNATIONAL, published 2026)
Ends that are not written are not given here.

Key:
[1] = target: T1, Recombinant human transferrin receptor (human, UniProt P02786 89-760, limits assumed); assay: ELISA: recombinant human transferrin receptor coated at 1 ug/mL, biotinylated peptide titrated, detection with streptavidin-HRP/TMB, absorbance at 450 nm
T1 construct: Recombinant protein; also called transferrin receptor (human protein)
Experimental: (§1) Recombinant human transferrin receptor was absorbed onto high binding ELISA plates at 1 μg/mL. […] Retained MTS peptide was detected using streptavidin-HRP and TMB reagent. The absorbance was measured at 450 nm and is proportional to the amount of MTS peptide captured by transferrin receptor. As shown, MTS2_V1-2 binds to […] in a concentration dependent manner which saturates at higher concentrations. By comparison, MTS3_V1-2 and a scrambled control peptide of MTS2_V1-2 show no binding. The binding affinity of MTS2_V1-2 for transferrin receptor was determined by biolayer interferometry on a OctetRED 96 system. The biotinylated MTS2_V1-2 peptide was captured on streptavidin probe. The kon and koff rate were determined at various concentrations of human or mouse transferrin receptor allowing for determination of the dissociation constant.

[2] = target: T2, Mouse transferrin receptor (mouse, UniProt Q62351 89-763, limits assumed); assay: biolayer interferometry (OctetRED 96); biotinylated peptide on streptavidin probe, receptor as analyte; mouse transferrin receptor
T2 construct: Used as the analyte in BLI; also called mouse receptor
Experimental: as §1

[3] = target: T1, Recombinant human transferrin receptor; assay: biolayer interferometry (OctetRED 96); biotinylated peptide on streptavidin probe, receptor as analyte; human transferrin receptor
Experimental: as §1

T1 sequence (P02786 89-760 limits assumed): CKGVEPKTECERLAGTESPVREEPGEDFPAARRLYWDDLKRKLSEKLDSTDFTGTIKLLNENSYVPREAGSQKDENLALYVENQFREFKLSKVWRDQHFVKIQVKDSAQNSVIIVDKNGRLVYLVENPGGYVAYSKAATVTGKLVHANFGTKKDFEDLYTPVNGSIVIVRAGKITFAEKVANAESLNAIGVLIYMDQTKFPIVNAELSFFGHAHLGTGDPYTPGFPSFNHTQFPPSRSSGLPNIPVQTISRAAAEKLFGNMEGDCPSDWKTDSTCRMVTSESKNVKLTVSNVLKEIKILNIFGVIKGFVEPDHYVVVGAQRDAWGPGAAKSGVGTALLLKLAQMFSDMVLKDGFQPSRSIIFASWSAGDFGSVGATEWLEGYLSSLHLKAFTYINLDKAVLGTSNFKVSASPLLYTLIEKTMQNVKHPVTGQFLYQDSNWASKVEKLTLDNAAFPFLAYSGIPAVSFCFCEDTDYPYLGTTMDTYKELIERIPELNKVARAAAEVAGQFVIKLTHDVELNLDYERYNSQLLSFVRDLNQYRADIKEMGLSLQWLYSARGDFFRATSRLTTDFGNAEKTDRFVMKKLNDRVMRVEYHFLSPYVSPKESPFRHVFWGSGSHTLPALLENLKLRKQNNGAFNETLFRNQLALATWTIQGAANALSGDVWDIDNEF
T2 sequence (Q62351 89-763 limits assumed): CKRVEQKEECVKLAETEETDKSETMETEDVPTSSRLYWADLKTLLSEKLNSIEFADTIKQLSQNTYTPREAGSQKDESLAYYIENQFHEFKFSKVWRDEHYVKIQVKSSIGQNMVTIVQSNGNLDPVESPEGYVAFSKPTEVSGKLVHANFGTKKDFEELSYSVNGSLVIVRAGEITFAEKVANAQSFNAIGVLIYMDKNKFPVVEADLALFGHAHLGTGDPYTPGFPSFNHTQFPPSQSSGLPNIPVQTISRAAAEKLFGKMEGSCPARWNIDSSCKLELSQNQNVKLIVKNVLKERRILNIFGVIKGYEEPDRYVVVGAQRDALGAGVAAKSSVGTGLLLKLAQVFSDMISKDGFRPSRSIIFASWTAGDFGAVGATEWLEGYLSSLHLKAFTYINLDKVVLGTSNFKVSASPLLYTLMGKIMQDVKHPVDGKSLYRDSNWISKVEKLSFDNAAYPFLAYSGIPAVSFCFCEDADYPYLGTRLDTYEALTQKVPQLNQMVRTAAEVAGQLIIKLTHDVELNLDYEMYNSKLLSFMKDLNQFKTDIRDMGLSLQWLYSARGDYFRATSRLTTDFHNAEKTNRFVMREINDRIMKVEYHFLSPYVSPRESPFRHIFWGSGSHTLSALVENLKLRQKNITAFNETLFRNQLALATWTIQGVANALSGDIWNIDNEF

B1: MTS3_V1-2 (biotinylated dimeric Ac-SKETYSMNAQRQHERS) (peptide)
peptide: Ac-SKETYSMNAQRQHERS
modifications: also: dimer: C-terminus joined through a linker to a dimeric core, biotinylated, place not given here
notes: Biotinylated for the ELISA; also called dimer version of MTS3_V1; biotinylated MTS3_V1-2
- binding result [1]: no binding (tested: 1000 nM)

B2: MTS2_V1-2 (biotinylated dimeric Ac-FPSWTSKNQQWTNQRQ) (peptide)
peptide: Ac-FPSWTSKNQQWTNQRQ
modifications: also: dimer: C-terminus joined through a linker to a dimeric core, biotinylated, place not given here
notes: Biotinylated for the ELISA and for capture on the streptavidin probe in BLI; also called dimer version of MTS2_V1; biotinylated MTS2_V1-2
- EC50 (read off the curve) [1]: ~100 nM
- Kd [2]: 12 nM
- Kd [3]: 210 nM
